Test results published in patent US20130251719A1.

Target: PCV2-ORF2-antigens coated on ELISA plates (porcine circovirus type 2 (PCV2))
Test: competitive ELISA on PCV2-ORF2-antigens, competitor HRP-conjugated anti-PCV2 mab; residual signal of the mab

Substance: positive control of commercialized testkit (Ingenasa)
- OD: 0.343 OD at 450 nm
